According to paper PMC5938748 (Molecular microbiology, 2012):

T1: Bacillus subtilis MutSF30A (B. subtilis, UniProt P49849 1-858, F30A)
T1 sequence (looked up): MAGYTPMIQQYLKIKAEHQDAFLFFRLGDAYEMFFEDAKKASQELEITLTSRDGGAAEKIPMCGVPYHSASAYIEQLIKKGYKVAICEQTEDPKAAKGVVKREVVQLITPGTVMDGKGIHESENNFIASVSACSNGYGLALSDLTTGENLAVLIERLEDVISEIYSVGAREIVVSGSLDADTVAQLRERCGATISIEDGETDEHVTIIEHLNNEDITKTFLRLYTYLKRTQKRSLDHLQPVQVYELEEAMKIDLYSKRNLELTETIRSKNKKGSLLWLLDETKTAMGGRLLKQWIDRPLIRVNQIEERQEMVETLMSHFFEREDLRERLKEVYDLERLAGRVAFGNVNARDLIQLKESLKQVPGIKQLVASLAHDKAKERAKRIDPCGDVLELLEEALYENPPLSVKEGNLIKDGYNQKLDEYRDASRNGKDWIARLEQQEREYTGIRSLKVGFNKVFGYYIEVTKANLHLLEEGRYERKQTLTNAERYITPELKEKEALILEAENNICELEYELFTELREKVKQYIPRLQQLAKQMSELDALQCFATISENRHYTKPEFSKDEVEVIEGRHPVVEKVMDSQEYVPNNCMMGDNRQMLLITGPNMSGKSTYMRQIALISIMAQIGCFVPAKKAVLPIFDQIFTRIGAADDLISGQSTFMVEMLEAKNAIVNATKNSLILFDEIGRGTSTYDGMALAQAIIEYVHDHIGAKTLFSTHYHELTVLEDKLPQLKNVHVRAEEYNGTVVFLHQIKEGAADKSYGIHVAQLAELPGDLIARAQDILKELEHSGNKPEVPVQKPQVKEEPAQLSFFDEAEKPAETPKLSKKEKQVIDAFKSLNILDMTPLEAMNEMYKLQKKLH

T2: Bacillus subtilis MutS (B. subtilis, UniProt P49849 1-858)
T2 sequence (looked up): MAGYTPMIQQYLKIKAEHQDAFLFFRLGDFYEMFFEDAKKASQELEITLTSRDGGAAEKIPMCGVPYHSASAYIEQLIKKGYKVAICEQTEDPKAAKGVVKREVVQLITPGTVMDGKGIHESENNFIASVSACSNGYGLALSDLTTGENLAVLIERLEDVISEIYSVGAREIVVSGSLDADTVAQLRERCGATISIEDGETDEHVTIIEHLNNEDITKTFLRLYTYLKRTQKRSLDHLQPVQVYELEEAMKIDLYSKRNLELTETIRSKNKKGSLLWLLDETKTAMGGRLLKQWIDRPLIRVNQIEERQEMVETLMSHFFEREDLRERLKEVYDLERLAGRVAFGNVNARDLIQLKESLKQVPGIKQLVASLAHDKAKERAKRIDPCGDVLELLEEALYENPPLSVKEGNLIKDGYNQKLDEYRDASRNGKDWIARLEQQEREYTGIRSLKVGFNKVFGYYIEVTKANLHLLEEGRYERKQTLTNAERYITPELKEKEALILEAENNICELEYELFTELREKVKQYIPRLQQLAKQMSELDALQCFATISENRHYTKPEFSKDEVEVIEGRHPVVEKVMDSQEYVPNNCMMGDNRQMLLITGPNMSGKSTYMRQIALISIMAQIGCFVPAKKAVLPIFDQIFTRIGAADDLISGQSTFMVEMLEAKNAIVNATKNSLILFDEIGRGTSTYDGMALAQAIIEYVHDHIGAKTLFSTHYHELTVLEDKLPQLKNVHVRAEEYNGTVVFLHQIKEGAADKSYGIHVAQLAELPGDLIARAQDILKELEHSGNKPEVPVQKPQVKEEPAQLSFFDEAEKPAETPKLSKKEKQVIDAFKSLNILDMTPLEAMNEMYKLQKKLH

T3: MutS (Bacillus subtilis, UniProt P49849 1-858)
T3 sequence: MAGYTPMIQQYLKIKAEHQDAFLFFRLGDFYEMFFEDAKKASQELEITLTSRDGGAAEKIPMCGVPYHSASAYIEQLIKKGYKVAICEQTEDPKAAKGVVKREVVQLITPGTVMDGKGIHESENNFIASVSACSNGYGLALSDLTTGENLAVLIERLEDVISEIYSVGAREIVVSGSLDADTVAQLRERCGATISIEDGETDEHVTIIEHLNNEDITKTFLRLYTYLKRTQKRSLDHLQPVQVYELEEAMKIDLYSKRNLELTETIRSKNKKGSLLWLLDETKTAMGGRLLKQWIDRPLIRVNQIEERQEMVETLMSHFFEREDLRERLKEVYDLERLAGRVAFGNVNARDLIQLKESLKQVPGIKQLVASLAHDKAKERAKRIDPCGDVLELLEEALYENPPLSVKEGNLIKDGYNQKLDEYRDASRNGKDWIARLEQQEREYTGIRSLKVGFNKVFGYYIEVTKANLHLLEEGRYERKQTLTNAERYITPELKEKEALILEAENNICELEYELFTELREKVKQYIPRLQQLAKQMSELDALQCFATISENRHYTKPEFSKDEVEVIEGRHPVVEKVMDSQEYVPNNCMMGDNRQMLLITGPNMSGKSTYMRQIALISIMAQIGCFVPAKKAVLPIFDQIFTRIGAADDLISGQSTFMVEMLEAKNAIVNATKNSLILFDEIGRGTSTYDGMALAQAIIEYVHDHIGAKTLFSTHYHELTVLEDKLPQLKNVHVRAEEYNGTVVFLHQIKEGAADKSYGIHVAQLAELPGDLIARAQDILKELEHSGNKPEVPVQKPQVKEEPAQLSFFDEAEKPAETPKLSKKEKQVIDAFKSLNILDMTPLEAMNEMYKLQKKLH

B1: Bacillus subtilis processivity clamp DnaN (natural protein, B. subtilis, UniProt P05649 1-378, looked up)
chain: MKFTIQKDRLVESVQDVLKAVSSRTTIPILTGIKIVASDDGVSFTGSDSDISIESFIPKEEGDKEIVTIEQPGSIVLQARFFSEIVKKLPMATVEIEVQNQYLTIIRSGKAEFNLNGLDADEYPHLPQIEEHHAIQIPTDLLKNLIRQTVFAVSTSETRPILTGVNWKVEQSELLCTATDSHRLALRKAKLDIPEDRSYNVVIPGKSLTELSKILDDNQELVDIVITETQVLFKAKNVLFFSRLLDGNYPDTTSLIPQDSKTEIIVNTKEFLQAIDRASLLAREGRNNVVKLSAKPAESIEISSNSPEIGKVVEAIVADQIEGEELNISFSPKYMLDALKVLEGAEIRVSFTGAMRPFLIRTPNDETIVQLILPVRTY
B2: 2-AP(+T) T-bulge duplex (dsDNA)
DNA 1: TAAAGGAAGTCGTCTATATATGGTATGACTAAGTGTA
DNA 2: TACACTTAGTCATACCATTATAGACGACTTCCTTTA
modifications: 2-aminopurine at position 18 of strand 1 (written as A)

What was measured:
[1] = target: T1, Bacillus subtilis MutSF30A; test: far-Western, overlay or dot blot
Bacillus subtilis MutS = target: T2, Bacillus subtilis MutS; test: far-Western, overlay or dot blot
MutS = target: T3, MutS; test: 2-aminopurine fluorescence titration

Row | Binder | binding result [1] | binding result (Bacillus subtilis MutS) | Kd (MutS) [nM]
1 | B1 | binds | binds | 
2 | B2 |  |  | 24
